Experimental data reported in PMC3092057.

Assays:
Assay in all cases: EMSA
TIEG1(DBD) S384E/T445E = TIEG1(DBD) S384E/T445E (Homo sapiens, UniProt Q13118 363-480, S384E;T445E)
TIEG1(DBD) S384E = TIEG1(DBD) S384E (Homo sapiens, UniProt Q13118 363-480, S384E)
TIEG1(DBD) = TIEG1(DBD) (Homo sapiens, UniProt Q13118 363-480)
TIEG1(DBD) T445E = TIEG1(DBD) T445E (Homo sapiens, UniProt Q13118 363-480, T445E)
TIEG1(DBD) S384A = TIEG1(DBD) S384A (Homo sapiens, UniProt Q13118 363-480, S384A)
TIEG1(DBD) T445A = TIEG1(DBD) T445A (Homo sapiens, UniProt Q13118 363-480, T445A)
TIEG1(DBD) S384A/T445A = TIEG1(DBD) S384A/T445A (Homo sapiens, UniProt Q13118 363-480, S384A;T445A)

Measured: binding result

Chain of TIEG1(DBD) (Q13118 363-480): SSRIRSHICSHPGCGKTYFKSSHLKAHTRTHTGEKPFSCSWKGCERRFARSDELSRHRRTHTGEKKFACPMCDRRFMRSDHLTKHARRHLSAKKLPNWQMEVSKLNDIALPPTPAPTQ
Chain of TIEG1(DBD) S384E/T445E (Q13118 363-480 S384E/T445E): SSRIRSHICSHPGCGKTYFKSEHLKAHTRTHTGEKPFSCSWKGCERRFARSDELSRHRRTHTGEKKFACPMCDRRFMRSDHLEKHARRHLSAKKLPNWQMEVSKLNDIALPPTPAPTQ
Chain of TIEG1(DBD) S384A (Q13118 363-480 S384A): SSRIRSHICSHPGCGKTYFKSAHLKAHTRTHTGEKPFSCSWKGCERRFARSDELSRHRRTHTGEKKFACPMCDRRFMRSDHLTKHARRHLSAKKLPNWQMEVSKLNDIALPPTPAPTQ
Chain of TIEG1(DBD) S384E (Q13118 363-480 S384E): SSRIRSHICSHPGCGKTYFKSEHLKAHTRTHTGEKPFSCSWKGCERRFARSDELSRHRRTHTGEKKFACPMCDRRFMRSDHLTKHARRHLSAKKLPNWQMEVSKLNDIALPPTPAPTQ
Chain of TIEG1(DBD) S384A/T445A (Q13118 363-480 S384A/T445A): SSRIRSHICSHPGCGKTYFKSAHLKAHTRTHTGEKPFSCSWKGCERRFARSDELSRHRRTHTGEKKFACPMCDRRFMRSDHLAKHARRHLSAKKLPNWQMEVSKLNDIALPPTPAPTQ
Chain of TIEG1(DBD) T445E (Q13118 363-480 T445E): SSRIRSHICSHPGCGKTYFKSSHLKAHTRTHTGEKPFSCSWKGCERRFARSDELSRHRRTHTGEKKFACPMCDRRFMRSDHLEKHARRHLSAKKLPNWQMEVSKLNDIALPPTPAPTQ
Chain of TIEG1(DBD) T445A (Q13118 363-480 T445A): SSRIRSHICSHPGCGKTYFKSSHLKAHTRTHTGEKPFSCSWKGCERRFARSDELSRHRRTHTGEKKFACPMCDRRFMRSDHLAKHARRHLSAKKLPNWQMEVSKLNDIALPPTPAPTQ

B1: set I TIEG1 site (dsDNA)
DNA 1: TGCAGTGAAAAGGGGGTGTGTCAGGATGC
DNA 2: TGCATCCTGACACACCCCCTTTTCACTGC
no binding: TIEG1(DBD) S384E/T445E | TIEG1(DBD) S384E
binds: all other assays above
